Experimental data: patent US20170298119A1

B1: ZC6 (antibody, V domains shown)
VH: QVQLVQSGAEVKKPGASVKVSCKASGYSFTTYGISWVRQAPGQGLEWMGVIYPRSGNTYYAQKLQGRVTMTTDTSTSTAYMELRSLRSDDTAVYYCARENYGSVYWGQGTLVTVSS
VL: DIQMTQSPSSLSASVGDRVTITCKASQSVGTAVAWYQQKPGKAPKLLIYSASNRYTGVPSRFSGSGSGTDFTLTISSLQPEDFATYFCQQFSNYPFTFGGGTKVEIK
B2: ZC1 (antibody, V domains shown)
VH: QVQLVQSGAEVKKPGASVKVSCKASGYTFTSYGISWVRQATGQGLEWMGVIYPRSGNTYYAEKFRGRVTMTADKSISTAYMELSSLRSEDTAVYYCARENYGSVYWGQGTLVTVSS
VL: EIVMTQSPATLSVSPGERATLSCRASQSVGTAVAWYQQKPGQAPRLLIYSASNRYTGIPARFSGSGSGTEFTLTISSLQSEDFADYFCQQFYNYPFTFGGGTKVEIK
B3: ZC9 (antibody, V domains shown)
VH: QVQLVQSGAEVKKPGASVKVSCKASGYTFTSYGISWVRQAPGQGLEWMGVIYPRSGNTYYAQKLQGRVTMTTDTSTSTAYMELRSLRSDDTAVYYCARENYGSVYWGQGTLVTVSS
VL: EIVMTQSPATLSVSPGERATLSCRASQSVGTAVAWYQQKPGQAPRLLIYSASNRYTGIPARFSGSGSGTEFTLTISSLQSEDFADYFCQQFYNYPFTFGGGTKVEIK
B4: ZC5 (antibody, V domains shown)
VH: QVQLVQSGAEVKKPGASVKVSCKASGYSFTTYGISWVRQAPGQGLEWMGVIYPRSGNTYYAQKLQGRVTMTTDTSTSTAYMELRSLRSDDTAVYYCARENYGSVYWGQGTLVTVSS
VL: EIVMTQSPATLSVSPGERATLSCRASQSVGTAVAWYQQKPGQAPRLLIYSASNRYTGIPARFSGSGSGTEFTLTISSLQSEDFADYFCQQFYNYPFTFGGGTKVEIK

Biological target: ZIKV strain MR766 (E protein on infectious virus) (Zika virus strain MR766) (UniProt Q32ZE1)
Experiment: cell-based or functional assay

**Q.** B1 was tested. Which in vitro neutralization EC50 (foci counted on Vero cells) did it give?
**A.** Its in vitro neutralization EC50 (foci counted on Vero cells) is less than 0.02 µg/mL.

**Q.** B2 was tested. Which in vitro neutralization EC50 (foci counted on Vero cells) did it give?
**A.** Its in vitro neutralization EC50 (foci counted on Vero cells) is less than 0.02 µg/mL.

**Q.** B3 was tested. Which in vitro neutralization EC50 (foci counted on Vero cells) did it give?
**A.** Its in vitro neutralization EC50 (foci counted on Vero cells) is less than 0.02 µg/mL.

**Q.** With B4 as the binder, how does the in vitro neutralization EC50 (foci counted on Vero cells) read?
**A.** Its in vitro neutralization EC50 (foci counted on Vero cells) is less than 0.02 µg/mL.
